Target: the molecule itself
Assay: cryo-EM structure

B1: feline APN ectodomain without the Fc fusion (dimer) (domain or fragment)
chain: DQSKPWNVYRLPKTLIPDSYNVTLRPYLTPNNKGLYVFTGTNIVRFTCKESTNIVIIHSKRLNYTSHQGHMVALSGVGGFHPQPVIVRTELVELTEYLVVHLQEPLVAGRQYEMNSEFQGELADDLAGFYRSEYMENGVKKVLATTHMQATEARKSFPCFDEPAMKATFNITIIHPNNLVALSNMLPRGPSVPFGEDPTWKVTEFETTPIMSTYLLAYIVSEFSYVETRAPSGVLIRIWARPSAINQGHGDYALKVTGPILDFFSQHYDTPYPLNKSDQIALPDFNAGAMENWGLVTYRESALLYDRQSSSSGNQERVVTVIAHELAHQWFGNLVTLEWWNDLWLNEGFASYVEYLGADFAEPTWNLKDLMVLNDVYRVMAVDALASSHPLSTPASEINTPAQISEVFDSISYSKGASVLRMLSNFLTEDLFKMGIASYLHTYKYGNTIYLNLWEHLQQVVDKQPTIKLPDTVSAIMDRWILQMGFPVITVDTQTGTISQQHFLLDPQSVVTRPSQFNYLWIVPISSVRSGSPQAHYWLPGVEKAQNDLFKTTANDWVLLNLNVTGYYLVNYDNENWKKIQTQLQTDLSVIPVINRAQVIHDAFNLASAQKVPVTLALNNTLFLIQETEYMPWQAALSSLSYFKLMFDRSEVYGPMKRYLKKQVTPLFNHFERVTKNWTDHPQTLMDQYSEINAVSTACSYGVPECEKLAATLFAQWKKNPQNNPIHPNLRSTVYCNAIAQGGEEEWNFVWEQFLKAELVNEADKLRGALACSNQVWILNRFLSYTLDPNLIRKQDVTSTLSSISSNVVGQTLVWDFVQSNWKKLFQDYGTGSFSFSNLIQAVTRRFSTEFELQQLEQFKKNNMDTGFGSATRALEQALEKTKANLKWVKENKDVVLRWFTENS
With B1 the “stoichiometry N” value was 2.

From publication doi:10.1101/2024.08.25.607996 (bioRxiv, 2024)
